From publication PMC10318062 (Nature Communications, 2023) come the findings set out here.

The target in this assay is SARS-CoV-2 hexaproline stabilized pre-fusion spike glycoprotein (S6P) (SARS-CoV-2, ancestral (Wuhan-Hu-1 …, UniProt P0DTC2, stabilised)). Kind of assay: AlphaScreen or HTRF. Conditions: one partner purified.

B1: REGN10933 (sdFab) (Fab, V domains shown)
VH: QVQLVESGGGLVKPGGSLRLSCAASGFTFSDYYMSWIRQAPGKGLEWVSYITYSGSTIYYADSVKGRFTISRDNAKSSLYLQMNSLRAEDTAVYYCARDRGTTMVPFDYWGQGTLVTVSS
VL: DIQMTQSPSSLSASVGDRVTITCQASQDITNYLNWYQQKPGKAPKLLIYAASNLETGVPSRFSGSGSGTDFTFTISGLQPEDIATYYCQQYDNLPLTFGGGTKVEIK
Consider B1, for which the binding result is given as “binds”.

B2: AZD8895 (sdFab) (Fab, V domains shown)
VH: EVQLVQSGPEVKKPGTSVKVSCKASGFTFMSSAVQWVRQARGQRLEWIGWIVIGSGNTNYAQKFQERVTITRDMSTSTAYMELSSLRSEDTAVYYCAAPYCSSISCNDGFDIWGQGTMVTVSS
VL: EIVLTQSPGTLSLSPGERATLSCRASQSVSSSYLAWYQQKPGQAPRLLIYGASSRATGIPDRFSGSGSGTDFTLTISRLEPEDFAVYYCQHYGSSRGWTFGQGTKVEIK
Take B2: the binding result is recorded as “binds”.

B3: LY-CoV1404 (sdFab) (Fab, V domains shown)
VH: QITLKESGPTLVKPTQTLTLTCTFSGFSLSISGVGVGWLRQPPGKALEWLALIYWDDDKRYSPSLKSRLTISKDTSKNQVVLKMTNIDPVDTATYYCAHHSISTIFDHWGQGTLVTVSS
VL: QSALTQPASVSGSPGQSITISCTATSSDVGDYNYVSWYQQHPGKAPKLMIFEVSDRPSGISNRFSGSKSGNTASLTISGLQAEDEADYYCSSYTTSSAVFGGGTKLTVL
Turning to B3, the binding result was “binds”.

B4: REGN10987 (sdFab) (Fab, V domains shown)
VH: QVQLVESGGGVVQPGRSLRLSCAASGFTFSNYAMYWVRQAPGKGLEWVAVISYDGSNKYYADSVKGRFTISRDNSKNTLYLQMNSLRTEDTAVYYCASGSDYGDYLLVYWGQGTLVTVSS
VL: QSALTQPASVSGSPGQSITISCTGTSSDVGGYNYVSWYQQHPGKAPKLMIYDVSKRPSGVSNRFSGSKSGNTASLTISGLQSEDEADYYCNSLTSISTWVFGGGTKLTVL
With B4, the binding result is on record as “binds”.

B5: CB6 (sdFab) (Fab, V domains shown)
VH: EVQLVESGGGLVQPGGSLRLSCAASGFTVSSNYMSWVRQAPGKGLEWVSVIYSGGSTFYADSVKGRFTISRDNSMNTLFLQMNSLRAEDTAVYYCARVLPMYGDYLDYWGQGTLVTVSS
VL: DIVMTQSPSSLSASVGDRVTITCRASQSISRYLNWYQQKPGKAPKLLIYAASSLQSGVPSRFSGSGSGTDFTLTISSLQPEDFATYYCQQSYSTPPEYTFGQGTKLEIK
As to B5, the binding result is reported as “binds”.

B6: LY-CoV555 (sdFab) (Fab, V domains shown)
VH: QVQLVQSGAEVKKPGSSVKVSCKASGGTFSNYAISWVRQAPGQGLEWMGRIIPILGIANYAQKFQGRVTITADKSTSTAYMELSSLRSEDTAVYYCARGYYEARHYYYYYAMDVWGQGTAVTVSS
VL: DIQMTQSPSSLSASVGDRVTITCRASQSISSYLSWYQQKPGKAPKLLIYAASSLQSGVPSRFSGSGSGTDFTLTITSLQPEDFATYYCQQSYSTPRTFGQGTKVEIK
As for B6, the binding result is reported as “binds”.
